Laboratory results published in patent publication US20140087995A1 (published 2014).
Numbered stars: 1 amine (or outer) side, 2 acyl side, 3 side chain; on linkers, the order of the positions; unused ones are H or OH. Bridge positions count the residues as written; N and C are the ends. Side chains are listed from the residue outwards. Ends that are not written are not given here. * marks the point of attachment. C20 diacid = O=C(O)CCCCCCCCCCCCCCCCCCC(=O)*; γGlu = O=C(O)[C@H](CCC(=O)[*:2])N[*:1]; AEEA = NCCOCCOCC(=O)O

T1: human amylin 3(a) receptor (human calcitonin receptor co-expressed with RAMP-3) (human, UniProt P30988 25-474; O60896 24-148, limits assumed)
T1 sequence (looked up) 1: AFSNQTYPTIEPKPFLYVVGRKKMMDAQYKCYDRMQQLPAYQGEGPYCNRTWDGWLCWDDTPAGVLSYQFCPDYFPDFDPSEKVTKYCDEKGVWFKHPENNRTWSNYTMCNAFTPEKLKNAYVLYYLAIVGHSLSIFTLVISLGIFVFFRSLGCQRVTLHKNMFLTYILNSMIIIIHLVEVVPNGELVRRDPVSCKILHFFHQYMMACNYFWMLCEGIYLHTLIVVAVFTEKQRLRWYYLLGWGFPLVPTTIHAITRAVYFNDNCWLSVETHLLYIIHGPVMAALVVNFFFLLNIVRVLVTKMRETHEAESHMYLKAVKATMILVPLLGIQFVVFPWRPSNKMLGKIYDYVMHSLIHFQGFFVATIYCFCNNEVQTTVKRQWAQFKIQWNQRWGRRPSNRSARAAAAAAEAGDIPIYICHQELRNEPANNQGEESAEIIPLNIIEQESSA
T1 sequence (looked up) 2: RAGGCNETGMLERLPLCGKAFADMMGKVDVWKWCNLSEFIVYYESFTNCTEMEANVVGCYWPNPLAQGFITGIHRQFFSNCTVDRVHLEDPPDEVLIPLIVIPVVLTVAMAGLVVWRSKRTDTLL

B1: N^ε1-[2-[2-[2-[[(4S)-4-carboxy-4-(19-carboxynonadecanoylamino)butanoyl]amino]ethoxy]ethoxy]acetyl]-[Arg17,Pro21,Pro27,Pro31]-h-amylin (peptide)
peptide: K([AEEA-γGlu-C20 diacid])CNTATCATQRLANFLRHSSPNFGAIPSSTPVGSNTY-NH2
modifications: disulfide 2-7; N-terminus assumed
SMILES: CC[C@H](C)[C@H](NC(=O)[C@H](C)NC(=O)CNC(=O)[C@H](Cc1ccccc1)NC(=O)[C@H](CC(N)=O)NC(=O)[C@@H]1CCCN1C(=O)[C@H](CO)NC(=O)[C@H](CO)NC(=O)[C@H](Cc1c[nH]cn1)NC(=O)[C@H](CCCNC(=N)N)NC(=O)[C@H](CC(C)C)NC(=O)[C@H](Cc1ccccc1)NC(=O)[C@H](CC(N)=O)NC(=O)[C@H](C)NC(=O)[C@H](CC(C)C)NC(=O)[C@H](CCCNC(=N)N)NC(=O)[C@H](CCC(N)=O)NC(=O)[C@@H](NC(=O)[C@H](C)NC(=O)[C@@H]1CSSC[C@H](NC(=O)[C@@H](N)CCCCNC(=O)COCCOCCNC(=O)CC[C@H](NC(=O)CCCCCCCCCCCCCCCCCCC(=O)O)C(=O)O)C(=O)N[C@@H](CC(N)=O)C(=O)N[C@@H]([C@@H](C)O)C(=O)N[C@@H](C)C(=O)N[C@@H]([C@@H](C)O)C(=O)N1)[C@@H](C)O)C(=O)N1CCC[C@H]1C(=O)N[C@@H](CO)C(=O)N[C@@H](CO)C(=O)N[C@H](C(=O)N1CCC[C@H]1C(=O)N[C@H](C(=O)NCC(=O)N[C@@H](CO)C(=O)N[C@@H](CC(N)=O)C(=O)N[C@H](C(=O)N[C@@H](Cc1ccc(O)cc1)C(N)=O)[C@@H](C)O)C(C)C)[C@@H](C)O
notes: also called compound 49
B2: N^ε1-[2-[2-[2-[[(4S)-4-carboxy-4-(19-carboxynonadecanoylamino)butanoyl]amino]ethoxy]ethoxy]acetyl]-[His14,Arg17,Pro21,Pro27,Pro34]-h-amylin (peptide)
peptide: K([AEEA-γGlu-C20 diacid])CNTATCATQRLAHFLRHSSPNFGAIPSSTNVGPNTY-NH2
modifications: disulfide 2-7; N-terminus assumed
SMILES: CC[C@H](C)[C@H](NC(=O)[C@H](C)NC(=O)CNC(=O)[C@H](Cc1ccccc1)NC(=O)[C@H](CC(N)=O)NC(=O)[C@@H]1CCCN1C(=O)[C@H](CO)NC(=O)[C@H](CO)NC(=O)[C@H](Cc1c[nH]cn1)NC(=O)[C@H](CCCNC(=N)N)NC(=O)[C@H](CC(C)C)NC(=O)[C@H](Cc1ccccc1)NC(=O)[C@H](Cc1c[nH]cn1)NC(=O)[C@H](C)NC(=O)[C@H](CC(C)C)NC(=O)[C@H](CCCNC(=N)N)NC(=O)[C@H](CCC(N)=O)NC(=O)[C@@H](NC(=O)[C@H](C)NC(=O)[C@@H]1CSSC[C@H](NC(=O)[C@@H](N)CCCCNC(=O)COCCOCCNC(=O)CC[C@H](NC(=O)CCCCCCCCCCCCCCCCCCC(=O)O)C(=O)O)C(=O)N[C@@H](CC(N)=O)C(=O)N[C@@H]([C@@H](C)O)C(=O)N[C@@H](C)C(=O)N[C@@H]([C@@H](C)O)C(=O)N1)[C@@H](C)O)C(=O)N1CCC[C@H]1C(=O)N[C@@H](CO)C(=O)N[C@@H](CO)C(=O)N[C@H](C(=O)N[C@@H](CC(N)=O)C(=O)N[C@H](C(=O)NCC(=O)N1CCC[C@H]1C(=O)N[C@@H](CC(N)=O)C(=O)N[C@H](C(=O)N[C@@H](Cc1ccc(O)cc1)C(N)=O)[C@@H](C)O)C(C)C)[C@@H](C)O
notes: also called compound 68
B3: N^ε1-[2-[2-[2-[[(4S)-4-carboxy-4-(19-carboxynonadecanoylamino)butanoyl]amino]ethoxy]ethoxy]acetyl]-[His14,Arg17,Pro21,Pro27,Arg34]-h-amylin (peptide)
peptide: K([AEEA-γGlu-C20 diacid])CNTATCATQRLAHFLRHSSPNFGAIPSSTNVGRNTY-NH2
modifications: disulfide 2-7; N-terminus assumed
SMILES: CC[C@H](C)[C@H](NC(=O)[C@H](C)NC(=O)CNC(=O)[C@H](Cc1ccccc1)NC(=O)[C@H](CC(N)=O)NC(=O)[C@@H]1CCCN1C(=O)[C@H](CO)NC(=O)[C@H](CO)NC(=O)[C@H](Cc1c[nH]cn1)NC(=O)[C@H](CCCNC(=N)N)NC(=O)[C@H](CC(C)C)NC(=O)[C@H](Cc1ccccc1)NC(=O)[C@H](Cc1c[nH]cn1)NC(=O)[C@H](C)NC(=O)[C@H](CC(C)C)NC(=O)[C@H](CCCNC(=N)N)NC(=O)[C@H](CCC(N)=O)NC(=O)[C@@H](NC(=O)[C@H](C)NC(=O)[C@@H]1CSSC[C@H](NC(=O)[C@@H](N)CCCCNC(=O)COCCOCCNC(=O)CC[C@H](NC(=O)CCCCCCCCCCCCCCCCCCC(=O)O)C(=O)O)C(=O)N[C@@H](CC(N)=O)C(=O)N[C@@H]([C@@H](C)O)C(=O)N[C@@H](C)C(=O)N[C@@H]([C@@H](C)O)C(=O)N1)[C@@H](C)O)C(=O)N1CCC[C@H]1C(=O)N[C@@H](CO)C(=O)N[C@@H](CO)C(=O)N[C@H](C(=O)N[C@@H](CC(N)=O)C(=O)N[C@H](C(=O)NCC(=O)N[C@@H](CCCNC(=N)N)C(=O)N[C@@H](CC(N)=O)C(=O)N[C@H](C(=O)N[C@@H](Cc1ccc(O)cc1)C(N)=O)[C@@H](C)O)C(C)C)[C@@H](C)O
notes: also called compound 84
B4: N^ε1-[2-[2-[2-[[(4S)-4-carboxy-4-(19-carboxynonadecanoylamino)butanoyl]amino]ethoxy]ethoxy]acetyl]-[Arg17,Pro21,Pro27,Pro34]-h-amylin (peptide)
peptide: K([AEEA-γGlu-C20 diacid])CNTATCATQRLANFLRHSSPNFGAIPSSTNVGPNTY-NH2
modifications: disulfide 2-7; N-terminus assumed
SMILES: CC[C@H](C)[C@H](NC(=O)[C@H](C)NC(=O)CNC(=O)[C@H](Cc1ccccc1)NC(=O)[C@H](CC(N)=O)NC(=O)[C@@H]1CCCN1C(=O)[C@H](CO)NC(=O)[C@H](CO)NC(=O)[C@H](Cc1c[nH]cn1)NC(=O)[C@H](CCCNC(=N)N)NC(=O)[C@H](CC(C)C)NC(=O)[C@H](Cc1ccccc1)NC(=O)[C@H](CC(N)=O)NC(=O)[C@H](C)NC(=O)[C@H](CC(C)C)NC(=O)[C@H](CCCNC(=N)N)NC(=O)[C@H](CCC(N)=O)NC(=O)[C@@H](NC(=O)[C@H](C)NC(=O)[C@@H]1CSSC[C@H](NC(=O)[C@@H](N)CCCCNC(=O)COCCOCCNC(=O)CC[C@H](NC(=O)CCCCCCCCCCCCCCCCCCC(=O)O)C(=O)O)C(=O)N[C@@H](CC(N)=O)C(=O)N[C@@H]([C@@H](C)O)C(=O)N[C@@H](C)C(=O)N[C@@H]([C@@H](C)O)C(=O)N1)[C@@H](C)O)C(=O)N1CCC[C@H]1C(=O)N[C@@H](CO)C(=O)N[C@@H](CO)C(=O)N[C@H](C(=O)N[C@@H](CC(N)=O)C(=O)N[C@H](C(=O)NCC(=O)N1CCC[C@H]1C(=O)N[C@@H](CC(N)=O)C(=O)N[C@H](C(=O)N[C@@H](Cc1ccc(O)cc1)C(N)=O)[C@@H](C)O)C(C)C)[C@@H](C)O
notes: also called compound 50
B5: N^ε1-[2-[2-[2-[[(4S)-4-carboxy-4-(19-carboxynonadecanoylamino)butanoyl]amino]ethoxy]ethoxy]acetyl]-[Arg17,Pro21,Pro27,Pro34,His35]-h-amylin (peptide)
peptide: K([AEEA-γGlu-C20 diacid])CNTATCATQRLANFLRHSSPNFGAIPSSTNVGPHTY-NH2
modifications: disulfide 2-7; N-terminus assumed
SMILES: CC[C@H](C)[C@H](NC(=O)[C@H](C)NC(=O)CNC(=O)[C@H](Cc1ccccc1)NC(=O)[C@H](CC(N)=O)NC(=O)[C@@H]1CCCN1C(=O)[C@H](CO)NC(=O)[C@H](CO)NC(=O)[C@H](Cc1c[nH]cn1)NC(=O)[C@H](CCCNC(=N)N)NC(=O)[C@H](CC(C)C)NC(=O)[C@H](Cc1ccccc1)NC(=O)[C@H](CC(N)=O)NC(=O)[C@H](C)NC(=O)[C@H](CC(C)C)NC(=O)[C@H](CCCNC(=N)N)NC(=O)[C@H](CCC(N)=O)NC(=O)[C@@H](NC(=O)[C@H](C)NC(=O)[C@@H]1CSSC[C@H](NC(=O)[C@@H](N)CCCCNC(=O)COCCOCCNC(=O)CC[C@H](NC(=O)CCCCCCCCCCCCCCCCCCC(=O)O)C(=O)O)C(=O)N[C@@H](CC(N)=O)C(=O)N[C@@H]([C@@H](C)O)C(=O)N[C@@H](C)C(=O)N[C@@H]([C@@H](C)O)C(=O)N1)[C@@H](C)O)C(=O)N1CCC[C@H]1C(=O)N[C@@H](CO)C(=O)N[C@@H](CO)C(=O)N[C@H](C(=O)N[C@@H](CC(N)=O)C(=O)N[C@H](C(=O)NCC(=O)N1CCC[C@H]1C(=O)N[C@@H](Cc1c[nH]cn1)C(=O)N[C@H](C(=O)N[C@@H](Cc1ccc(O)cc1)C(N)=O)[C@@H](C)O)C(C)C)[C@@H](C)O
notes: also called compound 58
B6: N^ε1-[2-[2-[2-[[(4S)-4-carboxy-4-(19-carboxynonadecanoylamino)butanoyl]amino]ethoxy]ethoxy]acetyl]-[Lys14,Arg17,Pro21,Pro27,Pro31]-h-amylin (peptide)
peptide: K([AEEA-γGlu-C20 diacid])CNTATCATQRLAKFLRHSSPNFGAIPSSTPVGSNTY-NH2
modifications: disulfide 2-7; N-terminus assumed
SMILES: CC[C@H](C)[C@H](NC(=O)[C@H](C)NC(=O)CNC(=O)[C@H](Cc1ccccc1)NC(=O)[C@H](CC(N)=O)NC(=O)[C@@H]1CCCN1C(=O)[C@H](CO)NC(=O)[C@H](CO)NC(=O)[C@H](Cc1c[nH]cn1)NC(=O)[C@H](CCCNC(=N)N)NC(=O)[C@H](CC(C)C)NC(=O)[C@H](Cc1ccccc1)NC(=O)[C@H](CCCCN)NC(=O)[C@H](C)NC(=O)[C@H](CC(C)C)NC(=O)[C@H](CCCNC(=N)N)NC(=O)[C@H](CCC(N)=O)NC(=O)[C@@H](NC(=O)[C@H](C)NC(=O)[C@@H]1CSSC[C@H](NC(=O)[C@@H](N)CCCCNC(=O)COCCOCCNC(=O)CC[C@H](NC(=O)CCCCCCCCCCCCCCCCCCC(=O)O)C(=O)O)C(=O)N[C@@H](CC(N)=O)C(=O)N[C@@H]([C@@H](C)O)C(=O)N[C@@H](C)C(=O)N[C@@H]([C@@H](C)O)C(=O)N1)[C@@H](C)O)C(=O)N1CCC[C@H]1C(=O)N[C@@H](CO)C(=O)N[C@@H](CO)C(=O)N[C@H](C(=O)N1CCC[C@H]1C(=O)N[C@H](C(=O)NCC(=O)N[C@@H](CO)C(=O)N[C@@H](CC(N)=O)C(=O)N[C@H](C(=O)N[C@@H](Cc1ccc(O)cc1)C(N)=O)[C@@H](C)O)C(C)C)[C@@H](C)O
notes: also called compound 74

The binders below were run against T1, human amylin 3(a) receptor (human …) (assay: cell-based or functional assay).
For B1, the “Ratio hCT/hAmylin funct. (hCTR EC50 over hAmylin-R EC50)” value was 22.5 and the “hAmylin-R funct. EC50 (pM)” value was 106 pM. With B2 the “Ratio hCT/hAmylin funct. (hCTR EC50 over hAmylin-R EC50)” value was 17.4 and the “hAmylin-R funct. EC50 (pM)” value was 54 pM. In the case of B3, the “Ratio hCT/hAmylin funct. (hCTR EC50 over hAmylin-R EC50)” value is reported as 32.5 and the “hAmylin-R funct. EC50 (pM)” value is reported as 169 pM. With B4 the “Ratio hCT/hAmylin funct. (hCTR EC50 over hAmylin-R EC50)” value was 17.4 and the “hAmylin-R funct. EC50 (pM)” value was 38 pM. In the case of B5, the “Ratio hCT/hAmylin funct. (hCTR EC50 over hAmylin-R EC50)” value is reported as 21.9 and the “hAmylin-R funct. EC50 (pM)” value is reported as 47 pM. With B6 the “Ratio hCT/hAmylin funct. (hCTR EC50 over hAmylin-R EC50)” value was 56.3 and the “hAmylin-R funct. EC50 (pM)” value was 666 pM.
